Our source for the Fluorescence (RFU) values is patent US20180224449A1.

Ends that are not written are not given here.

For the first test, the target named is OprF outer membrane protein on P. stutzeri cells (P. stutzeri). As to the kind of experiment: fluorometry at 525 nm of 1x10^9 P. stutzeri cells labeled with peptide-QD525 conjugate.
As to QITLRST (conjugated to a quantum dot (QD525)) [OBP7 peptide-quantum dot conjugate], the Fluorescence (RFU) is 2620 RFU.
QMLLRLP (conjugated to a quantum dot (QD525)) [OBP9 peptide-quantum dot conjugate] yielded a Fluorescence (RFU) of 3340 RFU.
On to RRSNSQL (conjugated to a quantum dot (QD525)) [OBP4 peptide-quantum dot conjugate], for which the Fluorescence (RFU) stood at 4520 RFU.
NMTNPPP (conjugated to a quantum dot (QD525)) [OBP6 peptide-quantum dot conjugate] displayed a Fluorescence (RFU) of 2080 RFU.

In another test the target is Opr86 outer membrane protein on P. stutzeri cells (P. stutzeri). The description is as above.
LPSTIHR (conjugated to a quantum dot (QD525)) [OPP3 peptide-quantum dot conjugate] returned a Fluorescence (RFU) of 2250 RFU.
In the case of MHNLNLL (conjugated to a quantum dot (QD525)) [OPP2 peptide-quantum dot conjugate], the Fluorescence (RFU) came out at 1850 RFU.
Take RKKSRIR (conjugated to a quantum dot (QD525)) [OPP6 peptide-quantum dot conjugate]: the Fluorescence (RFU) was 4130 RFU.
Take IITMKRR (conjugated to a quantum dot (QD525)) [OPP5 peptide-quantum dot conjugate]: the Fluorescence (RFU) was 4410 RFU.
LRPLMNR (conjugated to a quantum dot (QD525)) [OPP4 peptide-quantum dot conjugate] displayed a Fluorescence (RFU) of 1380 RFU.
Turning to PRIRKSH (also: conjugated to quantum dot) [OPP1 peptide-quantum dot conjugate], the Fluorescence (RFU) is 12300 RFU.

Another test has the same target. As to the kind of experiment: fluorometry of cells recovered from spiked 1 L Jet A fuel and labeled with 1.5 uM peptide-QD545, at the LOD of 5 x 10^5 CFU.
With PRIRKSH (also: conjugated to quantum dot) [OPP1 peptide-quantum dot conjugate], the Fluorescence (RFU) was determined as 820 RFU.

Another test deals with Opr86 outer membrane protein on A. venetianus cells (A. venetianus). The test is described as above.
PRIRKSH (also: conjugated to quantum dot) [OPP1 peptide-quantum dot conjugate] had a Fluorescence (RFU) of 773 RFU.
